Measured values from patent US20080131373A1 (VAN ANDEL RESEARCH INSTITUTE, published 2008).

B1: Fab-paclitaxel conjugate (anti-EGFR Fab conjugated to paclitaxel) (Fab, V domains shown)
VH: EVQLVESGGGLVQPGRSLRLSCAASGFTFDDYAMHWVRQAPGKGLEWVAVIWYDGSNKYYADSVKGRFTISRDNSKNTLYLQMNSLRAEDTAVYYCARTLYSNIDYWGQGTLVTVSS
VL: ALTQPPSVSVAPGKTARITCGGNNIGSKSVHWYQQKPGQAPVLVIYYDSDRPSGIPERFSGSNSGNTATLTISRVEAGDEADYYCQVWDSSSDHPVFGGGTKLTVL
modifications: paclitaxel conjugated to the Fab; chain, site and linker not stated
B2: anti-EGFR Fab fragment (produced by E. coli deposited as ATCC PTA-7830) (Fab, V domains shown)
VH: EVQLVESGGGLVQPGRSLRLSCAASGFTFDDYAMHWVRQAPGKGLEWVAVIWYDGSNKYYADSVKGRFTISRDNSKNTLYLQMNSLRAEDTAVYYCARTLYSNIDYWGQGTLVTVSS
VL: ALTQPPSVSVAPGKTARITCGGNNIGSKSVHWYQQKPGQAPVLVIYYDSDRPSGIPERFSGSNSGNTATLTISRVEAGDEADYYCQVWDSSSDHPVFGGGTKLTVL
notes: Human Fab from a naive phage display library (phagemid pComb3X), expressed in E. coli Top 10 F' and purified from the periplasm; also called the Fab of the present invention

Key:
[1] = target: human epidermal growth factor receptor (EGFR) on the surface of A431 cells (human, UniProt P00533 25-1210); assay: cell-based or functional assay
[2] = target: T1, full length EGFR protein from A431 cell lysate (affinity purified, or native in the lysate) (human, UniProt P00533 25-1210); assay: non-competitive ELISA on immobilized EGFR at 2 and 5 µg/ml coating
T1 construct: mature; 'mature' is chosen as the nearest form; also called intact EGFR protein; native EGFR
Procedure: The hyperbolic curves were plotted by Graphpad Prism (FIG. 7). […] The affinity was calculated as an association constant (Kaff) as follows: […]
The affinity of the Fab was calculated by non-competitive ELISA as described elsewhere (Raghava G P, et al. J Immunoassay 15:115-28 (1994)). The EGFR proteins were immobilized to an ELISA plate at two different concentrations: 2 μg/ml and 5 μg/ml. After the plate was blocked by 5% milk-PBS, the serially diluted Fab was added to each well. The concentration of Fab and the absorbance optical at 450 nm were plotted in two hyperbolic curves and each Kd was calculated by Graphpad Prism Demo Version.

Row | Binder | IC50 of A431 cell proliferation [1] [nM] | Ka [2] [M⁻¹] | Kd [2] [nM]
1 | B1 | 0.02 | – | –
2 | B2 | – | 3.25e+07 | 30.7
